Source: doi:10.1101/2025.07.23.666473

Biological target: NaV1.5 (mouse (endogenous in heart)) (UniProt Q9JJV9)
Assay: co-IP

UniProt Q9JJV9, sequence (Q9JJV9 whole entry): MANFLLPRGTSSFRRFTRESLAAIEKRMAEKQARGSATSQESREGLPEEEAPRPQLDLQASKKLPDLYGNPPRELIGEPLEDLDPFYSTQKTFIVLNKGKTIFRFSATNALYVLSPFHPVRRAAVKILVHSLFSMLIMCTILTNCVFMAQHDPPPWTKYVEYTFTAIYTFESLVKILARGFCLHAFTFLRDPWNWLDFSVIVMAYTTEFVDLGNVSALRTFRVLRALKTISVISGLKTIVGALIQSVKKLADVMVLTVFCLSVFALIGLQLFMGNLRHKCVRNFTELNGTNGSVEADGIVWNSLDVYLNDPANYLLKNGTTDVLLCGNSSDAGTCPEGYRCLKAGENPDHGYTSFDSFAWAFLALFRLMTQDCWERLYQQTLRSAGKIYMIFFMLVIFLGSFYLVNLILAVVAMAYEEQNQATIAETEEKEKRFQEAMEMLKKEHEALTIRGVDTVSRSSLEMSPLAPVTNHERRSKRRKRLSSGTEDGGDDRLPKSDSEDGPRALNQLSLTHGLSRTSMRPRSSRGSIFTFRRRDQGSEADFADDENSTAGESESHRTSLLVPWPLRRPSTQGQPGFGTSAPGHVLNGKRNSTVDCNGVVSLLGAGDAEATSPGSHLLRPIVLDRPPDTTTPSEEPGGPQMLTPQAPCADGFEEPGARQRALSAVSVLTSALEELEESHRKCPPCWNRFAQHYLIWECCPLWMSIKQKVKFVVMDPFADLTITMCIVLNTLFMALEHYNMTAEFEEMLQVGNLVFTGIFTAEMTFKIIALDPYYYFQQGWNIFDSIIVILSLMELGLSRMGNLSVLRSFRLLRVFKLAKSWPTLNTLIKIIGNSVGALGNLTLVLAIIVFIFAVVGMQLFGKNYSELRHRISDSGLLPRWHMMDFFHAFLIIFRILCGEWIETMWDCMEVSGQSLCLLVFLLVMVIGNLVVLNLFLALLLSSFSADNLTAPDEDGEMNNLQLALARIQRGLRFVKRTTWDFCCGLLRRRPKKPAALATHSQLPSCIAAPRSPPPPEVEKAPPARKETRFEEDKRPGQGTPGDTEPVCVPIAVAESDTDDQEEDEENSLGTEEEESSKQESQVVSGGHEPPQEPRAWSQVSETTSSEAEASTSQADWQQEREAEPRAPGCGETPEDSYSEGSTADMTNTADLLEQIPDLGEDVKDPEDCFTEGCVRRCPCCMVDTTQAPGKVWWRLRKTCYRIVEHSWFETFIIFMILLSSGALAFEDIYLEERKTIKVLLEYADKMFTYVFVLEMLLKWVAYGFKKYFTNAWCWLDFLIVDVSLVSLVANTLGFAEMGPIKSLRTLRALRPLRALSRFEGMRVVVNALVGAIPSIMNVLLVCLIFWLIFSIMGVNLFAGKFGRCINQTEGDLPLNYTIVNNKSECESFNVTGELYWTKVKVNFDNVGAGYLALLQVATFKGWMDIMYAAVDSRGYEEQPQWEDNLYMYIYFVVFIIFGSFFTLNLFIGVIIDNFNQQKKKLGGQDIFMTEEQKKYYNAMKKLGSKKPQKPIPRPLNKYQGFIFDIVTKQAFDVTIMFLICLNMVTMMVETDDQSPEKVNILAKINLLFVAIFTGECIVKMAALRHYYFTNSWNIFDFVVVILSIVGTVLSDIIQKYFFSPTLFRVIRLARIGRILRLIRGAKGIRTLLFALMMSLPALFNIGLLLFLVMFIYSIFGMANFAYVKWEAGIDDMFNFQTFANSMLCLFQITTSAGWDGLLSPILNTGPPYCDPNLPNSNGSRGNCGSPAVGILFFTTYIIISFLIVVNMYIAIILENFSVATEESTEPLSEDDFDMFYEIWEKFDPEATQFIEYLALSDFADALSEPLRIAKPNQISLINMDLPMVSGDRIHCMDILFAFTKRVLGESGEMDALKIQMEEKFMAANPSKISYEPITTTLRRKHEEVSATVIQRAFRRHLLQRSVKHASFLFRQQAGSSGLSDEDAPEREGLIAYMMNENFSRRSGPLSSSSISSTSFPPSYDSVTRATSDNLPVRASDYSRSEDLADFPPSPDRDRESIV

“FGF13 (from UniProt P70377 1-245) (natural protein)” was tested, and the percent of total FGF13 depleted with NaV1.5 (in complex) was 35%.
